Test results reported in patent US20180155451A1 (published 2018).

T1: FcγRIIb (human, UniProt P31994 43-217)
T1 construct: extracellular domain; also called 2b; FcgRIIb
T1 sequence (looked up): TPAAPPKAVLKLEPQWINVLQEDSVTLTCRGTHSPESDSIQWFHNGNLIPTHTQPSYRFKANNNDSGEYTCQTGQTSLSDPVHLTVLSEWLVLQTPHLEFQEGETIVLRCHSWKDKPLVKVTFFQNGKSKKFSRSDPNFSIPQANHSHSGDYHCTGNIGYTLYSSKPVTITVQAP

B1: GpH7-B3 variant K326_20W/GpL16-k0 (antibody, human IgG1, kappa)
heavy: not shown
light: DIVMTQSPLSLPVTPGEPASISCQASESLVHSNRNTYLHWYLQKPGQSPQLLIYKVSNRFSGVPDRFSGSGSGTDFTLKISRVEAEDVGVYYCSQNTHVPPTFGQGTKVEIERTVAAPSVFIFPPSDEQLKSGTASVVCLLNNFYPREAKVQWKVDNALQSGNSQESVTEQDSKDSTYSLSSTLTLSKADYEKHKVYACEVTHQGLSSPVTKSFNRGEC
notes: also called Ho Ab K326_20W
B2: GpH7-B3 variant S239_03V/GpL16-k0 (antibody, human IgG1, kappa)
heavy: not shown
light: B1 light
notes: also called Ho Ab S239_03V
B3: GpH7-B3 variant P238_09D/GpL16-k0 (antibody, human IgG1, kappa)
heavy: not shown
light: B1 light
notes: also called Ho Ab P238_09D
B4: GpH7-B3 variant P331_20W/GpL16-k0 (antibody, human IgG1, kappa)
heavy: not shown
light: B1 light
notes: also called Ho Ab P331_20W
B5: GpH7-B3 variant L234_20W/GpL16-k0 (antibody, human IgG1, kappa)
heavy: not shown
light: B1 light
notes: also called Ho Ab L234_20W
B6: GpH7-B3 variant P331_06M/GpL16-k0 (antibody, human IgG1, kappa)
heavy: not shown
light: B1 light
notes: also called Ho Ab P331_06M
B7: GpH7-B3 variant S337_15Y/GpL16-k0 (antibody, human IgG1, kappa)
heavy: not shown
light: B1 light
notes: also called Ho Ab S337_15Y
B8: GpH7-B3 variant L235_15Y/GpL16-k0 (antibody, human IgG1, kappa)
heavy: not shown
light: B1 light
notes: also called Ho Ab L235_15Y
B9: GpH7-B3 variant S337_16H/GpL16-k0 (antibody, human IgG1, kappa)
heavy: not shown
light: B1 light
notes: also called Ho Ab S337_16H
B10: GpH7-B3 variant P271_09D/GpL16-k0 (antibody, human IgG1, kappa)
heavy: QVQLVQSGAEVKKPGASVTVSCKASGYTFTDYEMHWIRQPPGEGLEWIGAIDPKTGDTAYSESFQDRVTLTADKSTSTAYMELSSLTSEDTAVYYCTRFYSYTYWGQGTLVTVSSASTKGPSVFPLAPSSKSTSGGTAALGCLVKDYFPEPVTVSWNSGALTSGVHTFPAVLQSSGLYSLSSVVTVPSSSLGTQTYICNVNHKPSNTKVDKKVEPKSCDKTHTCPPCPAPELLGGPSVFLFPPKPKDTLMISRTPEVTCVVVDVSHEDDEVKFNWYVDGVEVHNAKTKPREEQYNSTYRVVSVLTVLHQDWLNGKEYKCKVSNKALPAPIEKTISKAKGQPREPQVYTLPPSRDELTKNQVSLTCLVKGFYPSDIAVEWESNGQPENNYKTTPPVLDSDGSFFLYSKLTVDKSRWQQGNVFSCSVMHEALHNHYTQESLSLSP
light: B1 light
notes: also called Ho Ab P271_09D
B11: GpH7-B3 variant S267_06M/GpL16-k0 (antibody, human IgG1, kappa)
heavy: not shown
light: B1 light
notes: also called Ho Ab S267_06M
B12: GpH7-B3 variant T335_07I/GpL16-k0 (antibody, human IgG1, kappa)
heavy: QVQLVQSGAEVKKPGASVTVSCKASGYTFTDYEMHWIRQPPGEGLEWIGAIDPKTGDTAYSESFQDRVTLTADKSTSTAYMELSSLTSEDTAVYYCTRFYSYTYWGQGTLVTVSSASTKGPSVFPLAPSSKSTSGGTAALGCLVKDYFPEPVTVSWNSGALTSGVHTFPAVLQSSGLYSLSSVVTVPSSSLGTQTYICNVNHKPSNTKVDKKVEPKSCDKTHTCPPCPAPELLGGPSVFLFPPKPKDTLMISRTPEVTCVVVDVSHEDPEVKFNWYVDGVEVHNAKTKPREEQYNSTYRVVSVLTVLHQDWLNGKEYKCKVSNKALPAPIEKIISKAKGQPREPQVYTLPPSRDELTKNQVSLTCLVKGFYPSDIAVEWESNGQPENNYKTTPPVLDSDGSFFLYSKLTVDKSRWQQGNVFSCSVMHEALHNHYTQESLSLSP
light: B1 light
notes: also called Ho Ab T335_07I
B13: GpH7-B3 variant N325_04F/GpL16-k0 (antibody, human IgG1, kappa)
heavy: not shown
light: B1 light
notes: also called Ho Ab N325_04F
B14: GpH7-B3 variant T335_10E/GpL16-k0 (antibody, human IgG1, kappa)
heavy: not shown
light: B1 light
notes: also called Ho Ab T335_10E
B15: GpH7-B3 variant P331_03V/GpL16-k0 (antibody, human IgG1, kappa)
heavy: not shown
light: B1 light
notes: also called Ho Ab P331_03V
B16: GpH7-B3 variant S267_19Q/GpL16-k0 (antibody, human IgG1, kappa)
heavy: not shown
light: B1 light
notes: also called Ho Ab S267_19Q
B17: GpH7-B3 variant L328_10E/GpL16-k0 (antibody, human IgG1, kappa)
heavy: not shown
light: B1 light
notes: also called Ho Ab L328_10E
B18: GpH7-B3 variant N325_09D/GpL16-k0 (antibody, human IgG1, kappa)
heavy: not shown
light: B1 light
notes: also called Ho Ab N325_09D
B19: GpH7-B3 variant N325_03V/GpL16-k0 (antibody, human IgG1, kappa)
heavy: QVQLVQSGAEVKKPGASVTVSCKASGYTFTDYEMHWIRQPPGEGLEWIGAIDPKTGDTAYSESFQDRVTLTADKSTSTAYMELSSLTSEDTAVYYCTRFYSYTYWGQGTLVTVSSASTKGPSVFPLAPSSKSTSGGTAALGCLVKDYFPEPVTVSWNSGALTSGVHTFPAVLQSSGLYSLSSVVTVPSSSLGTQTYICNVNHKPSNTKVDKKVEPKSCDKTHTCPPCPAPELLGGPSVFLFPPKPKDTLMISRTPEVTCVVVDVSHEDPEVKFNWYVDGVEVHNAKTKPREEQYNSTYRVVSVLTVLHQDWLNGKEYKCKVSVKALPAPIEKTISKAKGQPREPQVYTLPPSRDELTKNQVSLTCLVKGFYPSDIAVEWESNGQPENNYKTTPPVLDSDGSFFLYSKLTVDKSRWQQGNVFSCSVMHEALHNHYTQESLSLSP
light: B1 light
notes: also called Ho Ab N325_03V
B20: GpH7-B3 variant P331_15Y/GpL16-k0 (antibody, human IgG1, kappa)
heavy: not shown
light: B1 light
notes: also called Ho Ab P331_15Y
B21: GpH7-B3 variant P238_10E/GpL16-k0 (antibody, human IgG1, kappa)
heavy: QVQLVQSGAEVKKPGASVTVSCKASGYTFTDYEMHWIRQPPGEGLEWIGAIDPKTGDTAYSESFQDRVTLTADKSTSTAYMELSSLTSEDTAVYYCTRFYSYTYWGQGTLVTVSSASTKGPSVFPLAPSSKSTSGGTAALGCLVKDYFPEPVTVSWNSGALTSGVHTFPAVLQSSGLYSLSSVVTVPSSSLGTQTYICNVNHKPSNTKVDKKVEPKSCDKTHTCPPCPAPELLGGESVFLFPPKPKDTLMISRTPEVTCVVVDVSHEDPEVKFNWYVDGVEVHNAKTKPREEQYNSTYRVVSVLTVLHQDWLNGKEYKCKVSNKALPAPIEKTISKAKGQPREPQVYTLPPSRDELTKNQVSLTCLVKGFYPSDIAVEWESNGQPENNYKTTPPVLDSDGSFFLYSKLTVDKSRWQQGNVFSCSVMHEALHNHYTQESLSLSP
light: B1 light
notes: also called Ho Ab P238_10E
B22: GpH7-B3 variant L235_04F/GpL16-k0 (antibody, human IgG1, kappa)
heavy: not shown
light: B1 light
notes: also called Ho Ab L235_04F
B23: GpH7-B3 variant S298_06M/GpL16-k0 (antibody, human IgG1, kappa)
heavy: not shown
light: B1 light
notes: also called Ho Ab S298_06M
B24: GpH7-B3 variant N325_06M/GpL16-k0 (antibody, human IgG1, kappa)
heavy: not shown
light: B1 light
notes: also called Ho Ab N325_06M
B25: GpH7-B3 variant N325_13S/GpL16-k0 (antibody, human IgG1, kappa)
heavy: not shown
light: B1 light
notes: also called Ho Ab N325_13S
B26: GpH7-B3 variant L235_09D/GpL16-k0 (antibody, human IgG1, kappa)
heavy: not shown
light: B1 light
notes: also called Ho Ab L235_09D
B27: GpH7-B3 variant P331_16H/GpL16-k0 (antibody, human IgG1, kappa)
heavy: not shown
light: B1 light
notes: also called Ho Ab P331_16H
B28: GpH7-B3 variant P238_20W/GpL16-k0 (antibody, human IgG1, kappa)
heavy: not shown
light: B1 light
notes: also called Ho Ab P238_20W
B29: GpH7-B3 variant L328_02A/GpL16-k0 (antibody, human IgG1, kappa)
heavy: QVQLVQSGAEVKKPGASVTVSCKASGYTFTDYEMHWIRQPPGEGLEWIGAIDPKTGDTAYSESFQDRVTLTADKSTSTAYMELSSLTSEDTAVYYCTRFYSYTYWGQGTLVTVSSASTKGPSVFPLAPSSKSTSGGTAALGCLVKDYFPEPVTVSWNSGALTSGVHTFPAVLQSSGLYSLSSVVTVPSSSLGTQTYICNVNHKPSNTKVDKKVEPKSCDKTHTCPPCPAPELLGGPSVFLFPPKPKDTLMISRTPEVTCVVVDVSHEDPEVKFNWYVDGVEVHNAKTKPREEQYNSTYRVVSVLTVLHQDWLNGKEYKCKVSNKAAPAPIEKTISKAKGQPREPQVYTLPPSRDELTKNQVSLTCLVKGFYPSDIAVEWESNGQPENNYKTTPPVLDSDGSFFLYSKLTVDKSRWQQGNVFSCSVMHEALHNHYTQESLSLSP
light: B1 light
notes: also called Ho Ab L328_02A
B30: GpH7-B3 variant S337_18N/GpL16-k0 (antibody, human IgG1, kappa)
heavy: not shown
light: B1 light
notes: also called Ho Ab S337_18N
B31: GpH7-B3 variant S324_06M/GpL16-k0 (antibody, human IgG1, kappa)
heavy: not shown
light: B1 light
notes: also called Ho Ab S324_06M
B32: GpH7-B3 variant P238_03V/GpL16-k0 (antibody, human IgG1, kappa)
heavy: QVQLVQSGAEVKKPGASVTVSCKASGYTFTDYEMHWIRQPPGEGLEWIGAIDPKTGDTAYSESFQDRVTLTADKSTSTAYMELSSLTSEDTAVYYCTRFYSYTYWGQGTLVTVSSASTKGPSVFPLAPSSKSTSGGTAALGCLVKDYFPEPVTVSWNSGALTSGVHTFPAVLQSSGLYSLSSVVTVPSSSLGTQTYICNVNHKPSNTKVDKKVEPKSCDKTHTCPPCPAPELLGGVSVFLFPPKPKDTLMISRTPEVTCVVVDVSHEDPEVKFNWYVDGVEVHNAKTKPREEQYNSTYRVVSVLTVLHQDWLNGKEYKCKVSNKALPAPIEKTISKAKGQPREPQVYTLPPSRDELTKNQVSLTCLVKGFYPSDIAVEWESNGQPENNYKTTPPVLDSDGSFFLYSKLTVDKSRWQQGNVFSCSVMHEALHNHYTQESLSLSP
light: B1 light
notes: also called Ho Ab P238_03V
B33: GpH7-B3 variant L234_10E/GpL16-k0 (antibody, human IgG1, kappa)
heavy: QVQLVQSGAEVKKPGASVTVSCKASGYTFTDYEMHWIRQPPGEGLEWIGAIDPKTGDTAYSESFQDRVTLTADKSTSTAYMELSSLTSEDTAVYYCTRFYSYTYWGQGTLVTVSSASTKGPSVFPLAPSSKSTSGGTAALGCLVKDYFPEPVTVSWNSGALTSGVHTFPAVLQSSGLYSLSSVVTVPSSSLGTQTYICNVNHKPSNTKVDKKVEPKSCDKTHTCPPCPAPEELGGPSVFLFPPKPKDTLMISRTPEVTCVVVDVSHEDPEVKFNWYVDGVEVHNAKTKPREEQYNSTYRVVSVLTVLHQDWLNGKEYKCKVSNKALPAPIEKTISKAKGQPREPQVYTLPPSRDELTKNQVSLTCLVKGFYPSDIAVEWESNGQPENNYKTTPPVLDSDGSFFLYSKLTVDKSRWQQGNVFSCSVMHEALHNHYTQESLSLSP
light: B1 light
notes: also called Ho Ab L234_10E
B34: GpH7-B3 variant N325_08L/GpL16-k0 (antibody, human IgG1, kappa)
heavy: not shown
light: B1 light
notes: also called Ho Ab N325_08L
B35: GpH7-B3 variant P238_19Q/GpL16-k0 (antibody, human IgG1, kappa)
heavy: not shown
light: B1 light
notes: also called Ho Ab P238_19Q
B36: GpH7-B3 variant P331_07I/GpL16-k0 (antibody, human IgG1, kappa)
heavy: not shown
light: B1 light
notes: also called Ho Ab P331_07I
B37: GpH7-B3 variant S337_07I/GpL16-k0 (antibody, human IgG1, kappa)
heavy: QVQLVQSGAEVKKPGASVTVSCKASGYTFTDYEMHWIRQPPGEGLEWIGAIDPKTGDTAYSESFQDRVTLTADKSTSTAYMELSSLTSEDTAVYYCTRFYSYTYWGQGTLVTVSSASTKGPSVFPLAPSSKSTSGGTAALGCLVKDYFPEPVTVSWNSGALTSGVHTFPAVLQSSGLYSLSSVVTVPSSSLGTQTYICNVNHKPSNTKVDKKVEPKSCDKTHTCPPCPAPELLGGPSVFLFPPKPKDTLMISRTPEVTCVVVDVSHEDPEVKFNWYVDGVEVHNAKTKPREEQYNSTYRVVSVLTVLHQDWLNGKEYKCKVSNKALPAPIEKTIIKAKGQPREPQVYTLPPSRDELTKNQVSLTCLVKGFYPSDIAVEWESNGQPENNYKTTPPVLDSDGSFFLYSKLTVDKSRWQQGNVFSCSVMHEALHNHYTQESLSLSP
light: B1 light
notes: also called Ho Ab S337_07I
B38: GpH7-B3 variant S267_01G/GpL16-k0 (antibody, human IgG1, kappa)
heavy: not shown
light: B1 light
notes: also called Ho Ab S267_01G
B39: GpH7-B3 variant N325_20W/GpL16-k0 (antibody, human IgG1, kappa)
heavy: not shown
light: B1 light
notes: also called Ho Ab N325_20W
B40: GpH7-B3 variant P238_04F/GpL16-k0 (antibody, human IgG1, kappa)
heavy: not shown
light: B1 light
notes: also called Ho Ab P238_04F
B41: GpH7-B3 variant L328_13S/GpL16-k0 (antibody, human IgG1, kappa)
heavy: not shown
light: B1 light
notes: also called Ho Ab L328_13S
B42: GpH7-B3 variant L234_09D/GpL16-k0 (antibody, human IgG1, kappa)
heavy: not shown
light: B1 light
notes: also called Ho Ab L234_09D
B43: GpH7-B3 variant L235_20W/GpL16-k0 (antibody, human IgG1, kappa)
heavy: not shown
light: B1 light
notes: also called Ho Ab L235_20W
B44: GpH7-B3 variant P238_16H/GpL16-k0 (antibody, human IgG1, kappa)
heavy: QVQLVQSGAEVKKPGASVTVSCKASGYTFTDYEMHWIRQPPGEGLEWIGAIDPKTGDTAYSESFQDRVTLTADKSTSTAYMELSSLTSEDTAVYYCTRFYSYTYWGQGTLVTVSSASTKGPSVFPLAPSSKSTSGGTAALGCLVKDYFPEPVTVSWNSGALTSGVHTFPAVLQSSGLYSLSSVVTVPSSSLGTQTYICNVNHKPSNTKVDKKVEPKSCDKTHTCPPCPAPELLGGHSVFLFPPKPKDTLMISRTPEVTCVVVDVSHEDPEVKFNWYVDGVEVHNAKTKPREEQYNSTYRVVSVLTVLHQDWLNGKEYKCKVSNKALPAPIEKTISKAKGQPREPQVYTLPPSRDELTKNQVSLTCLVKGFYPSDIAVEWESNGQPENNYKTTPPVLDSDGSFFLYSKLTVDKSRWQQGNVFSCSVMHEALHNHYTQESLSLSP
light: B1 light
notes: also called Ho Ab P238_16H
B45: GpH7-B3 variant S337_08L/GpL16-k0 (antibody, human IgG1, kappa)
heavy: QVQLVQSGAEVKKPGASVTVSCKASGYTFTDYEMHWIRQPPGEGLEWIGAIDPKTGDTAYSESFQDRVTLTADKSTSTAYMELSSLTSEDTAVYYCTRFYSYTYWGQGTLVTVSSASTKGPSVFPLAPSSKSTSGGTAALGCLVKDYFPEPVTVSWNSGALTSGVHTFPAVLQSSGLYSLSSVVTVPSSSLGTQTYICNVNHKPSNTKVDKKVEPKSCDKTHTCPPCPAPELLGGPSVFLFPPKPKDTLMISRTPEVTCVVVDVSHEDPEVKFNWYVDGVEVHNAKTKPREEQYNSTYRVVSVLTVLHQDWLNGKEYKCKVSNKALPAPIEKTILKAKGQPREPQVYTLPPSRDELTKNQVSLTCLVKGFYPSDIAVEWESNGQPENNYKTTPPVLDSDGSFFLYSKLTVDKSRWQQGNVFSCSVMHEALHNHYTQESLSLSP
light: B1 light
notes: also called Ho Ab S337_08L
B46: GpH7-B3 variant P271_10E/GpL16-k0 (antibody, human IgG1, kappa)
heavy: not shown
light: B1 light
notes: also called Ho Ab P271_10E
B47: GpH7-B3 variant P331_10E/GpL16-k0 (antibody, human IgG1, kappa)
heavy: not shown
light: B1 light
notes: also called Ho Ab P331_10E
B48: GpH7-B3 variant L328_09D/GpL16-k0 (antibody, human IgG1, kappa)
heavy: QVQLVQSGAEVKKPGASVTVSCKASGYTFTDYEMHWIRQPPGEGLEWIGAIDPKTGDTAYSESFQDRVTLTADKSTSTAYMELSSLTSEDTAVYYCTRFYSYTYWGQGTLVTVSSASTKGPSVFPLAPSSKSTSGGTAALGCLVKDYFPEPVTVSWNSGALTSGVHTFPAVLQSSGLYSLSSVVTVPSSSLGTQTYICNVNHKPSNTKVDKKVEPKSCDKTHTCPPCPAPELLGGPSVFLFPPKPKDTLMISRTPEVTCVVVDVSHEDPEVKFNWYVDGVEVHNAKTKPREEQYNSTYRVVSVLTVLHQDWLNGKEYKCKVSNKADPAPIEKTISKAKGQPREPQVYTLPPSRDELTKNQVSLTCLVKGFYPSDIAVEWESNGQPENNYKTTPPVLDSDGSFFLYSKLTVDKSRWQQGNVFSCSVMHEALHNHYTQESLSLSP
light: B1 light
notes: also called Ho Ab L328_09D
B49: GpH7-B3 variant S337_20W/GpL16-k0 (antibody, human IgG1, kappa)
heavy: not shown
light: B1 light
notes: also called Ho Ab S337_20W
B50: GpH7-B3 variant S239_06M/GpL16-k0 (antibody, human IgG1, kappa)
heavy: not shown
light: B1 light
notes: also called Ho Ab S239_06M
B51: GpH7-B3 variant S239_10E/GpL16-k0 (antibody, human IgG1, kappa)
heavy: not shown
light: B1 light
notes: also called Ho Ab S239_10E
B52: GpH7-B3 variant P238_06M/GpL16-k0 (antibody, human IgG1, kappa)
heavy: not shown
light: B1 light
notes: also called Ho Ab P238_06M
B53: GpH7-B3 variant S239_05P/GpL16-k0 (antibody, human IgG1, kappa)
heavy: not shown
light: B1 light
notes: also called Ho Ab S239_05P
B54: GpH7-B3 variant P238_15Y/GpL16-k0 (antibody, human IgG1, kappa)
heavy: not shown
light: B1 light
notes: also called Ho Ab P238_15Y
B55: GpH7-B3 variant N325_07I/GpL16-k0 (antibody, human IgG1, kappa)
heavy: not shown
light: B1 light
notes: also called Ho Ab N325_07I
B56: GpH7-B3 variant N325_01G/GpL16-k0 (antibody, human IgG1, kappa)
heavy: not shown
light: B1 light
notes: also called Ho Ab N325_01G

Target: T1, FcγRIIb
Test: SPR (Biacore), binding relative to GpH7-B3/GpL16-k0 = 100
Description: Analysis of interaction between objective antibody and the FcγR was carried out using Biacore T100 (GE Healthcare). HBS-EP+ (GE Healthcare) was used as the running buffer, and the measurement temperature was set to 25° C. Chips produced by immobilizing the antigen peptide by the amine coupling method to a Series S Sencor Chip CM5 (GE Healthcare), or alternatively, chips produced by allowing preliminarily biotinylated antigen peptides to interact with and immobilize onto a Series S Sensor Chip SA (certified) (GE Healthcare) were used. Antibodies of interest were captured onto an antigen peptide-immobilized chip, and allowed to interact to each FcγR diluted with running buffer. To regenerate and repeatedly use the chip, the antibodies captured on the chip were washed off by reacting 10 mM glycine-HCl, pH 1.5.
The FcγR-binding activity of each antibody was assessed primarily using as an indicator the FcγR-binding activity and dissociation constant for FcγR.

| Ho/Con_2b | Binder |
| --- | --- |
| 132 % of control | B1 |
| 108 % of control | B2 |
| 207 % of control | B3 |
| 111 % of control | B4 |
| 80.6 % of control | B5 |
| 71.5 % of control | B6 |
| 93.4 % of control | B7 |
| 127 % of control | B8 |
| 103 % of control | B9 |
| 100 % of control | B10 |
| 187 % of control | B11 |
| 104 % of control | B12 |
| 65.7 % of control | B13 |
| 108 % of control | B14 |
| 86.6 % of control | B15 |
| 185 % of control | B16 |
| 146 % of control | B17 |
| 77 % of control | B18 |
| 31.8 % of control | B19 |

| Ho/Con_2b | Binder |
| --- | --- |
| 111 % of control | B20 |
| 97.9 % of control | B21 |
| 111 % of control | B22 |
| 101 % of control | B23 |
| 159 % of control | B24 |
| 159 % of control | B25 |
| 78.7 % of control | B26 |
| 100 % of control | B27 |
| 12.6 % of control | B28 |
| 117 % of control | B29 |
| 98 % of control | B30 |
| 104 % of control | B31 |
| 96.6 % of control | B32 |
| 54.9 % of control | B33 |
| 106 % of control | B34 |
| 42.7 % of control | B35 |
| 63.3 % of control | B36 |
| 96.6 % of control | B37 |
| 97 % of control | B38 |

| Ho/Con_2b | Binder |
| --- | --- |
| 44 % of control | B39 |
| 209 % of control | B40 |
| 147 % of control | B41 |
| 68.5 % of control | B42 |
| 116 % of control | B43 |
| 18.8 % of control | B44 |
| 90.7 % of control | B45 |
| 95 % of control | B46 |
| 92.3 % of control | B47 |
| 159 % of control | B48 |
| 99.6 % of control | B49 |
| 84.3 % of control | B50 |
| 175 % of control | B51 |
| 97.1 % of control | B52 |
| 61 % of control | B53 |
| 114 % of control | B54 |
| 88.2 % of control | B55 |
| 20.2 % of control | B56 |
